Results taken from the supplement of paper PMC10126150.
± gives the standard deviation of the averaged measurements.

Tested on: ATP
Experiment: switch fluorescence ratio, 500 uM ATP over buffer (Cy3 cluster intensity, sum of 5 cycles each) (fold (ratio)); higher = stronger signal-on switching upon ATP binding; sequences stand for … in TCGTCGGCAGCGTCAGATGTGTATAAGAGACAGTTTTTTTTTTTTTTTTTTTTTTTTT…TC
Details: aptamer strand: ATP DNA aptamer (quencher-CACCTGGGGGAGTATTGCGGAGGAAGG + anchor), 100 nM annealed; ATP concentration: 500 uM
Method in brief: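 After annealing to 100 nM quencher-labelled ATP aptamer, Cy3-labelled switching-strand clusters on a modified Illumina MiSeq flow-cell were imaged in selection buffer. A second image followed after 15 min with 500 uM ATP at 22 °C, and five such buffer/ATP cycles were done, each separated by NaOH stripping and re-annealing. The fluorescence ratio, averaged per switch-domain sequence, is summed target-cycle over summed buffer-cycle Cy3 intensity per cluster, with clusters outside 100-1000 RFU excluded.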
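Also: ATP exposure 15 min at 22 °C before imaging.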

| Sequence | switch fluorescence ratio |
| --- | --- |
| CTTGGGTTGC | 0.9961 ± 0.0092 |
| GACCGATGGG | 1.01 ± 0.013 |
| ATAAAGATGG | 0.95924 ± 0.00085 |
| TCGCGAGGAG | 1.04 ± 0.014 |
| TGGGCGGGAG | 0.993 ± 0.039 |
| GGGAGAAGGA | 1.05 ± 0.085 |
| ATCGGGGTAA | 1.04 ± 0.068 |
| CGGAAGATAG | 1.027 ± 0.0066 |
| TTTAAGCCCC | 0.9854 ± 0.0082 |
| GGGGGTACGT | 0.989 ± 0.03 |
| GGGGTTATGT | 0.979 ± 0.021 |
| TTTTATAAAG | 1 ± 0.022 |
| AAGTAGTTTT | 0.985 ± 0.024 |
| AGTATATCGC | 1 ± 0.022 |
| AGGGGTAGGA | 0.99 ± 0.034 |
| AGAGCAAGGT | 1.08 ± 0.035 |
| GCTGGGGTCG | 0.9631 ± 0.0029 |
| TTGGCGTATC | 0.946 ± 0.041 |
| AAAGAGGTAG | 0.9983 ± 0.0024 |
| GGGGTTAAGG | 0.978 ± 0.029 |
| TCCTTCCGGG | 2.16 ± 0.19 |
| GGTCTGGGGT | 1.09 ± 0.21 |
| TATAAGACTT | 1.01 ± 0.035 |
| AAATAGGTTG | 1.01 ± 0.021 |
| ATTGTATTG | 0.986 ± 0.014 |
| GGAGAGTGCT | 0.985 ± 0.015 |

| Sequence | switch fluorescence ratio |
| --- | --- |
| ATCGCGTCGT | 0.995 ± 0.035 |
| CTCGTTGCGG | 1.06 ± 0.07 |
| GAGGAGGTTG | 1.027 ± 0.003 |
| ATATAACATT | 1.05 ± 0.018 |
| TAATGTGGGT | 0.967 ± 0.015 |
| TGAGCAGAGG | 1.04 ± 0.015 |
| GAAAGTAGAG | 1.01 ± 0.0018 |
| GCGAGCGCTG | 1.02 ± 0.032 |
| GCTGTTCATG | 0.993 ± 0.015 |
| AAGGGGGTTT | 1 ± 0.036 |
| TGTTTTTAA | 1 ± 0.062 |
| ATATATTGGT | 0.9922 ± 0.0046 |
| TCTTATTGCT | 0.96 ± 0.045 |
| CTGTTTGGGG | 1.004 ± 0.0028 |
| TTACAAGTAT | 1.03 ± 0.021 |
| TGGACAGGGT | 0.999 ± 0.017 |
| AAAACGACCC | 1.11 ± 0.07 |
| CAAATTAGGC | 1.06 ± 0.1 |
| GCGGTGCCTG | 0.977 ± 0.042 |
| TGATGAGATT | 0.999 ± 0.02 |
| TGTATTTGGG | 0.991 ± 0.013 |
| TGATTGAGGA | 0.981 ± 0.027 |
| GGTGTTGGGG | 1.0211 ± 3.7e-05 |
| CCTCGGTGCG | 1.02 ± 0.0087 |
| AGGGAATTTG | 1.014 ± 0.0021 |
| TTTTGCCATG | 1.04 ± 0.067 |

| Sequence | switch fluorescence ratio |
| --- | --- |
| TTGGGGCCCT | 1.01 ± 0.029 |
| AATTTTCAGA | 1.03 ± 0.019 |
| CGAGTCCATC | 0.955 ± 0.012 |
| TGCATTCGTT | 1.008 ± 0.009 |
| ATGGGGTGCG | 0.9998 ± 0.0014 |
| ACTATTTCGA | 1.01 ± 0.03 |
| GTTCCCTTGA | 1.02 ± 0.018 |
| CTAAAGAAAG | 0.989 ± 0.013 |
| GAAGTAAGTC | 1.104 ± 0.0051 |
| GCAGTTAGCC | 1.01 ± 0.034 |
| TTGGTGTGTC | 1.04 ± 0.07 |
| CAGGGTGGGT | 1.02 ± 0.05 |
| CCTGATGCGG | 1.02 ± 0.059 |
| TATAGATTGG | 0.985 ± 0.019 |
| AAAGAGGGTG | 1.1 ± 0.058 |
| AAACAGGAGT | 1.008 ± 0.0037 |
| AGGGGGGCAG | 0.987 ± 0.032 |
| CTGGGATGGG | 1.06 ± 0.13 |
| GGGTCGGGGC | 1.02 ± 0.017 |
| GTCCAAGGGT | 1.01 ± 0.035 |
| GATGGAGATA | 0.936 ± 0.06 |
| GGGGTGATCT | 1.02 ± 0.034 |
| CCTGGGGCGG | 1.07 ± 0.019 |
| CCAGTTTACT | 1.01 ± 0.042 |
| TTTGGGGAAC | 1.02 ± 0.035 |
| GCGGTTCCTG | 0.9829 ± 0.0076 |

| Sequence | switch fluorescence ratio |
| --- | --- |
| ATGTTGTAAC | 0.985 ± 0.01 |
| AAGGTGGGAC | 1.02 ± 0.021 |
| GGGGTTAAGT | 0.98 ± 0.014 |
| GAGGGAGATG | 1.03 ± 0.018 |
| TGGTTTGGTT | 0.986 ± 0.04 |
| AGTAGGGGTT | 0.979 ± 0.02 |
| GGGCAAGGTG | 1.21 ± 0.12 |
| GCTAGGGTTT | 0.965 ± 0.015 |
| AGAGACCTCA | 1.045 ± 0.0027 |
| TGGCGTTGGT | 0.994 ± 0.056 |
| ACTTGATCGC | 1.03 ± 0.03 |
| AACGAAGTCG | 1 ± 0.015 |
| AAGGTAGTCT | 1 ± 0.024 |
| TGCGCGAAAG | 0.98 ± 0.042 |
| ATGTGATTTG | 0.985 ± 0.035 |
| GGGATTAAGG | 0.999 ± 0.021 |
| ATTAAACGAG | 1.01 ± 0.031 |
| TAAGGGAAAC | 0.963 ± 0.013 |
| TCATGGTGTC | 1.01 ± 0.018 |
| TTTAAGGGGG | 1.15 ± 0.28 |
| TAAGAAGATG | 0.9808 ± 0.0014 |
| AAGGTCGCGG | 1 ± 0.017 |
| TATTTGTCCA | 0.981 ± 0.047 |
| TTTTTCGTTT | 0.997 ± 0.034 |
| AAATTAGAGG | 1 ± 0.026 |
| CAGTAAGTGG | 0.999 ± 0.02 |

| Sequence | switch fluorescence ratio |
| --- | --- |
| CCGTGGCGTG | 1.01 ± 0.033 |
| AGAGGGATAG | 1.19 ± 0.37 |
| TTGAAGTAAG | 0.994 ± 0.019 |
| CCCAGATTTT | 1.02 ± 0.03 |
| AAATAGGTGA | 1.05 ± 0.025 |
| TTTGCGG | 1.009 ± 0.0082 |
| TACCACTTTG | 1.24 ± 0.29 |
| GCTTGGAGAG | 0.99 ± 0.013 |
| TTGGCTTTTA | 0.99017 ± 0.00047 |
| GTGTGAATGT | 1.01 ± 0.021 |
| GTGGATTATT | 0.993 ± 0.05 |
| TCGGGGTTCG | 0.992 ± 0.03 |
| TTTTAGGAT | 1.004 ± 0.0021 |
| CCGGCTTTAG | 0.99 ± 0.015 |
| ATAGTATGTA | 1.01 ± 0.031 |
| AGCAAGTCAG | 1.07 ± 0.013 |
| GGTTCTTTTC | 0.996 ± 0.037 |
| ATGGATTTTT | 1.012 ± 0.0015 |
| CCATACTTAT | 1.042 ± 0.0059 |
| GGTATGGTCT | 1.02 ± 0.022 |
| TGATGAGCTC | 0.983 ± 0.02 |
| CGCTTTTTTG | 1.01 ± 0.032 |
| CCTAAATTTT | 1.01 ± 0.024 |
| GGGGAATAGT | 1.26 ± 0.32 |
| AATTTCTGGG | 1.06 ± 0.058 |
| ACGGTAATTC | 1.184 ± 0.011 |

| Sequence | switch fluorescence ratio |
| --- | --- |
| CTGCGTCCAT | 1.068 ± 0.01 |
| TAGAATCCG | 1.003 ± 0.009 |
| TGGGAAAGTT | 0.988 ± 0.025 |
| TGCTTAGGTT | 0.988 ± 0.011 |
| GGGGTCGACG | 1.033 ± 0.0092 |
| GGGCTAACCT | 1.32 ± 0.043 |
| AATATGAG | 1.02 ± 0.018 |
| TATTGAACGA | 1 ± 0.011 |
| GGGAAATAGC | 1.06 ± 0.036 |
| AATGGTCGGC | 0.996 ± 0.011 |
| ACCCTGGACA | 1.01 ± 0.019 |
| TGGTTCTGTT | 0.975 ± 0.018 |
| CCGTATATAT | 2.55 ± 0.096 |
| AGATGCCTGA | 0.989 ± 0.035 |
| TTGAGAGCAA | 1.72 ± 0.18 |
| GTACCATTTT | 0.9968 ± 0.0067 |
| TTTAAGGCGT | 1.03 ± 0.016 |
| ATGCGCTTTT | 1.03 ± 0.089 |
| TGATATACTG | 0.968 ± 0.026 |
| TCCAGGGGCG | 1.73 ± 0.99 |
| GGTGTTACGT | 0.971 ± 0.017 |
| CACTGTATCG | 1.13 ± 0.063 |
| AGAACGAAGG | 0.962 ± 0.015 |
